According to patent JP2014185312A (dated 2014):
No end group written: not given here.

Target: T1, Recombinant Human ErbB2/Fc Chimera (R&D Systems) (human, UniProt P04626 23-652)
T1 construct: Bought reagent, immobilised by amine coupling on a GLM sensor chip (about 3000 RU); also called HER2; not shown: Fc part (and any linker or tag) of the bought chimera; not described
Experiment: SPR (ProteOn XPR36), ErbB2/Fc immobilised on GLM chip, conjugate as analyte, 1:1 Langmuir fit

binding result | Binder
binds | MARSGLGGKGSC (not fully specified (residue 12); also: labelled with ICG-Sulfo-OSu, position not given here, Tested as the PEG/ICG conjugate; also called pe−PEG20)
binds | MARSGLGGKGSC (not fully specified (residue 12); also: labelled with ICG-Sulfo-OSu, position not given here, Tested as the PEG/ICG conjugate; also called pe−PEG40)
